From publication PMC10942606 come the findings set out here.

Holding throughout (experiment): EMSA
For orientation: Mobility shift assays separate free from complexed probe on a gel.

In data set [1] the target is Pcf1-ΔWHD;Pcf2;Pcf3;SpPCNA (Schizosaccharomyces …, UniProt Q1MTN9;O13985;Q9Y825;Q03392 1-470;1-512;1-408;1-260, del471-544|||).
A further data set has as its target T1, Pcf1_WHD (Schizosaccharomyces pombe, UniProt Q1MTN9 471-544).
T1 sequence: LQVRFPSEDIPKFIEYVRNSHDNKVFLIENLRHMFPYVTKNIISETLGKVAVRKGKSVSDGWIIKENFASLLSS

In another data set the target is Pcf1 WT;Pcf2;Pcf3;SpPCNA (Schizosaccharomyces …, UniProt Q1MTN9;O13985;Q9Y825;Q03392 1-544;1-512;1-408;1-260, |||).
The target of a further data set is T2, Pcf1 WT;Pcf2;Pcf3 (Schizosaccharomyces …, UniProt Q1MTN9;O13985;Q9Y825 1-544;1-512;1-408, ||).
T2 sequence 1: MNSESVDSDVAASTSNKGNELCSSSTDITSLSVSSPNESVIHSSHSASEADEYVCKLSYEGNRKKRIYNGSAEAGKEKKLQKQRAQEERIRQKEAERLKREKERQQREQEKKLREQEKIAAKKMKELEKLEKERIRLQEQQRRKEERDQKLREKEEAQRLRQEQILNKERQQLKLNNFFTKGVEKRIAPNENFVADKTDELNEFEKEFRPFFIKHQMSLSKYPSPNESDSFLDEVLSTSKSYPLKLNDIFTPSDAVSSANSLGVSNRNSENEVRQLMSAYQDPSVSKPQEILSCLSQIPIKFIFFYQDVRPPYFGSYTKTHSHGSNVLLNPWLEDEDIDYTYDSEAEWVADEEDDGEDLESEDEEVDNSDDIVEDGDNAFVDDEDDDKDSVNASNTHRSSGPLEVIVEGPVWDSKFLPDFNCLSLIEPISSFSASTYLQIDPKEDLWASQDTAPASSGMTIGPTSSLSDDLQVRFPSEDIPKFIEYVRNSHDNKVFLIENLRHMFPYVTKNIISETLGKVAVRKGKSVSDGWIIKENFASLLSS
T2 sequence 2: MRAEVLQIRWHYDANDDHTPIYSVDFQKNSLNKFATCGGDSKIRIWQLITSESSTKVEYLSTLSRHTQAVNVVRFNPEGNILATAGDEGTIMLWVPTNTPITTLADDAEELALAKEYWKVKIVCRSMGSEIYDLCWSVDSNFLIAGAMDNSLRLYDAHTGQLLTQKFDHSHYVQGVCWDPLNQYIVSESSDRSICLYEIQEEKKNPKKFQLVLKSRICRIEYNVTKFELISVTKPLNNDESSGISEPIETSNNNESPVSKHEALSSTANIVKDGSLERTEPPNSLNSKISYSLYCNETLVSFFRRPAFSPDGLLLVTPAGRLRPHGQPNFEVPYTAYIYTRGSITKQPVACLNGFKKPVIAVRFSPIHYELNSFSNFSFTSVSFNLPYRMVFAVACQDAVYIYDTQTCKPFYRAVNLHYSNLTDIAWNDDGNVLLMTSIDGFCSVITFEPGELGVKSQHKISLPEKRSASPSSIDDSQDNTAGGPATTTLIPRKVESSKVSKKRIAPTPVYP
T2 sequence 3: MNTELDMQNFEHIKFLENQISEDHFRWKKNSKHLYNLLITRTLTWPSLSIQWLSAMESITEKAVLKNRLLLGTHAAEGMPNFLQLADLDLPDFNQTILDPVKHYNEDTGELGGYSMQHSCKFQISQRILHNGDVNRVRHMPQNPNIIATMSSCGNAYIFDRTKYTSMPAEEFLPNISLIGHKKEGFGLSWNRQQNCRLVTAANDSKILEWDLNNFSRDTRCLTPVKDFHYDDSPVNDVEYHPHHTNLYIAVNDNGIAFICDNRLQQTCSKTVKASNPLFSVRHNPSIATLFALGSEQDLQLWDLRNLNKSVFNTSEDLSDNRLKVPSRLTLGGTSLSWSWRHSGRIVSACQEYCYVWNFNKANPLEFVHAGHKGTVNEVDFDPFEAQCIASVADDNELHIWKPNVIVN

Chain of Pcf1-ΔWHD;Pcf2;Pcf3;SpPCNA (Q03392 whole entry, stated change not applied, one chain of several): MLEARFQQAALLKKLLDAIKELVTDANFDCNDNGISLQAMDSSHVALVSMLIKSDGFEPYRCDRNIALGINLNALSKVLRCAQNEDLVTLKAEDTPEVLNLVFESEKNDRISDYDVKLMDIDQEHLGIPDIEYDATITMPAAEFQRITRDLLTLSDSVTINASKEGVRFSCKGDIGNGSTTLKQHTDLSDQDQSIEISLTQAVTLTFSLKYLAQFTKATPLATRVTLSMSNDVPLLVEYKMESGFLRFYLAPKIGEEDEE
Chain of Pcf1 WT;Pcf2;Pcf3;SpPCNA (Q03392 whole entry, one chain of several): as the sequence (Q03392 whole entry, stated change not applied, one chain of several) above

B1: 40 bp dsDNA (dsDNA)
DNA 1: ATCAATATCCACCTGCAGATACTACCAAAAGTGTATTTGG
DNA 2: CCAAATACACTTTTGGTAGTATCTGCAGGTGGATATTGAT
Consider B1, for which the binding result in data set [1] is reported as “binds”; in the data set with Pcf1_WHD it was “no binding”; with Pcf1 WT;Pcf2;Pcf3;SpPCNA, “binds”. In addition, the “apparent K (half saturation)” value with Pcf1 WT;Pcf2;Pcf3 is 3.4 ± 0.4 µM.
